Earlier results on one molecule are cited in paper PMC2666074 (Biochemistry, 2008).

The data set has as its system β-catenin in HEK293 cells. Conditions: no detectable levels of S100A6, ref Matsuzawa and Reed (2001).

B1: Siah-1: Siah-1 overexpressed by transient transfection of pSiah-1-FLAG (protein, UniProt Q8IUQ4 1-282, looked up)
E3 ubiquitin-protein ligase …: MSRQTATALPTGTSKCPPSQRVPALTGTTASNNDLASLFECPVCFDYVLPPILQCQSGHLVCSNCRPKLTCCPTCRGPLGSIRNLAMEKVANSVLFPCKYASSGCEITLPHTEKADHEELCEFRPYSCPCPGASCKWQGSLDAVMPHLMHQHKSITTLQGEDIVFLATDINLPGAVDWVMMQSCFGFHFMLVLEKQEKYDGHQQFFAIVQLIGTRKQAENFAYRLELNGHRRRLTWEATPRSIHEGIATAIMNSDCLVFDTSIAQLFAENGNLGINVTISMC
modifications: FLAG tag
Take B1: the “level of β-catenin upon Siah-1 transfection, in words” value is reported as “reduced levels of β-catenin”.
